# T1: His-HPV16E7融合蛋白 (human papillomavirus type 16 (HPV16), UniProt P03129 2-98)
# T1 construct: Recombinant His fusion protein coated on ELISA plates; also called HPV16E7重组蛋白; His-HPV16E7重组蛋白; not shown: His tag
# T1 sequence: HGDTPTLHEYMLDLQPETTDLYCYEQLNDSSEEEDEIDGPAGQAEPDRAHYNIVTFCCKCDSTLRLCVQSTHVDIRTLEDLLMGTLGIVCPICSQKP
# T2: CaSki细胞表达的HPV16E7蛋白 (human papillomavirus type 16 (HPV16), UniProt P03129 2-98)
# T2 construct: Endogenous, intracellular E7 of CaSki cells, tested in fixed, permeabilised cells (ICC); also called 表达HPV16E7的CaSki细胞; HPV16E7阳性细胞CaSki
# T2 sequence: T1 sequence
# T3: His-HPV18E7融合蛋白 (human papillomavirus type 18 (HPV18), UniProt P06788 1-105)
# T3 construct: Recombinant His fusion protein coated on ELISA plates; also called HPV18E7重组蛋白; His-HPV18E7重组蛋白; not shown: His tag
# T3 chain: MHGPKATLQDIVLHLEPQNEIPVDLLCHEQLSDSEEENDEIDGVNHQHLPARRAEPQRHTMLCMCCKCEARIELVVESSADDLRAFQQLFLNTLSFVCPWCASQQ
# B1: HPV18E7单克隆抗体MAB-F2 (antibody, V domains shown)
# VH: LVQSGGGSVKPGGSLKLSCAASGFTFNRYDMSWFRQSPEKRLEWVAEIRNDGSKTHYSDTVTGRFTISRDNAKNTLYLEMSSLRSEDTAMYYCTRDSYGTVFAYWGQGTLVTVSA
# VL: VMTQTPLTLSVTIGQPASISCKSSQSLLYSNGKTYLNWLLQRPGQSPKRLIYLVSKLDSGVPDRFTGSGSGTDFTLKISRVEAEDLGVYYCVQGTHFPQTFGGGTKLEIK
# notes: also called mAb MAB-F2; anti-HPV18E7单抗MAB-F2
# Assays:
# His-HPV16E7融合蛋白 = biological target: T1, His-HPV16E7融合蛋白; assay: indirect ELISA, coated His-HPV16E7
# CaSki细胞表达的HPV16E7蛋白 = biological target: T2, CaSki细胞表达的HPV16E7蛋白; assay: immunocytochemistry on fixed, permeabilised CaSki cells
# His-HPV18E7融合蛋白 = biological target: T3, His-HPV18E7融合蛋白; assay: ELISA by the method of Beatty et al.: His-HPV18E7 coated at 8, 2, 0.5 and 0.125 μg/ml, MAB-F2 in two-fold dilutions from 8 μg/ml, mean of six K values
binder,measurement,setting,value
B1,binding result,His-HPV16E7融合蛋白,no binding (tested: MAB-F2 1μg/ml; antigen coated at 2μg/ml)
same,binding result,CaSki细胞表达的HPV16E7蛋白,no binding (tested: MAB-F2 5μg/ml)
same,Kd,His-HPV18E7融合蛋白,2.67 nM

# Source: patent CN105524166A (ATTOBIO (SUZHOU) CO LTD, dated 2016)
